The values below come from patent EP1189630B1.

The test has as its target bovine hemoglobin (bovine) (UniProt P01966). The experiment in a line: solid-phase ligand binding assay (ELISA), hemoglobin-coated wells; one value printed for rHA2, RgpA and Kgp. In general terms: ELISA stands for enzyme-linked immunosorbent assay.
Sequence of UniProt P01966 (P01966 2-142 limits assumed, chain 1 of 2): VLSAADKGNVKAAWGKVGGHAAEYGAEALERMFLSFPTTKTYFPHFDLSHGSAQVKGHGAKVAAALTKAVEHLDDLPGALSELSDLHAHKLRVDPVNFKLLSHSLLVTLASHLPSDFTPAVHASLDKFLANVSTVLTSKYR
Sequence of UniProt P01966 (P02070 whole entry, chain 2 of 2, further chain): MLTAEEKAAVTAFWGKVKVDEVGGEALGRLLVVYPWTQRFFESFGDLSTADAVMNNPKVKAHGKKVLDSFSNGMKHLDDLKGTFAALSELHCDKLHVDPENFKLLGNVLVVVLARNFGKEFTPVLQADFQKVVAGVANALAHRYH

A word on the Kd: it is the equilibrium constant for the complex coming apart. Lower therefore signals higher affinity. “polydomain Arg-gingipain RgpA isolated from P. gingivalis (ATCC 33277) (from UniProt P28784 228-991) (enzyme)” gave a Kd of 2.1 nM.
